± gives the uncertainty stated by the source.
B1: Myocardin-related transcription factor A, residues 341 to 383; numbered along this chain, Q969V6 (parent)
chain: GALPANLDDMKVAELKQELKLRSLPVSGTKTELIERLRAYQDQ

Variants of: B1
Experiment: abundance fitness (aPCA) (normalised: wild type 0, dead -1); higher = more abundant; growth selection in yeast, the domain comes from the species named
Conditions: Homo sapiens

Q: With GALPANLDDMKVAELKQELKLRSLPVSGTKTELIERLREYQDQ [A39E] as the variant, how does the abundance fitness read?
A: The abundance fitness was 0.411 ± 0.11.

Q: With GALPANLDDMKVAELKQELKLRSLPVSGTKTELIERLRKYQDQ [A39K] as the variant, how does the abundance fitness read?
A: Its abundance fitness is 0.284 ± 0.064.

Q: For GALPANLDDMKVAELKQELKLRSLPVSGTKTELIERLRPYQDQ [A39P], which abundance fitness is on record?
A: Its abundance fitness is 0.168 ± 0.096.

Q: Which abundance fitness does the source give for GALPANLDDMKVAELKQELKLRSLPVSGTKTELIERLRYYQDQ [A39Y] here?
A: The abundance fitness was 0.129 ± 0.075.

Q: With GALPANLDDMKVAELKQELKLRSLPVSGTKTELIERLRLYQDQ [A39L] as the variant, how does the abundance fitness read?
A: The abundance fitness was 0.168 ± 0.077.

Q: With GALPANLDDMKVAELKQELKLRSLPVSGTKTELIERLRSYQDQ [A39S] as the variant, how does the abundance fitness read?
A: Its abundance fitness is 0.221 ± 0.073.

Q: For GALPANLDDMKVAELKQELKLRSLPVSGTKTELIERLRFYQDQ [A39F], which abundance fitness is on record?
A: Its abundance fitness is -0.127 ± 0.11.

Q: With GALPANLDDMKVAELKQELKLRSLPVSGTKTELIERLRNYQDQ [A39N] as the variant, how does the abundance fitness read?
A: Its abundance fitness is 0.259 ± 0.088.

Q: Which abundance fitness does the source give for GALPANLDDMKVAELKQELKLRSLPVSGTKTELIERLRVYQDQ [A39V] here?
A: Its abundance fitness is 0.187 ± 0.06.

Q: Which abundance fitness does the source give for GALPANLDDMKVAELKQELKLRSLPVSGTKTELIERLRIYQDQ [A39I] here?
A: The abundance fitness was -0.034 ± 0.11.

Q: For GALPANLDDMKVAELKQELKLRSLPVSGTKTELIERLRQYQDQ [A39Q], which abundance fitness is on record?
A: Its abundance fitness is 0.205 ± 0.086.

Q: With GALPANLDDMKVAELKQELKLRSLPVSGTKTELIERLRWYQDQ [A39W] as the variant, how does the abundance fitness read?
A: The abundance fitness was 0.074 ± 0.076.

Q: Which abundance fitness does the source give for GALPANLDDMKVAELKQELKLRSLPVSGTKTELIERLRAYCDQ [Q41C] here?
A: The abundance fitness was 0.061 ± 0.1.

Q: For GALPANLDDMKVAELKQELKLRSLPVSGTKTELIERLRAYGDQ [Q41G], which abundance fitness is on record?
A: The abundance fitness was 0.262 ± 0.058.

Q: With GALPANLDDMKVAELKQELKLRSLPVSGTKTELIERLRAYFDQ [Q41F] as the variant, how does the abundance fitness read?
A: Its abundance fitness is 0.222 ± 0.19.

Q: With GALPANLDDMKVAELKQELKLRSLPVSGTKTELIERLRAYHDQ [Q41H] as the variant, how does the abundance fitness read?
A: Its abundance fitness is -0.125 ± 0.1.

Q: Which abundance fitness does the source give for GALPANLDDMKVAELKQELKLRSLPVSGTKTELIERSRAYQDQ [L37S] here?
A: The abundance fitness was -0.419 ± 0.08.

Q: For GALPANLDDMKVAELKQELKLRSLPVSGTKTELIERWRAYQDQ [L37W], which abundance fitness is on record?
A: Its abundance fitness is -0.403 ± 0.072.

Q: Which abundance fitness does the source give for GALPANLDDMKVAELKQELKLRSLPVSGTKTELIERNRAYQDQ [L37N] here?
A: Its abundance fitness is -0.327 ± 0.12.

Q: For GALPANLDDMKVAELKQELKLRSLPVSGTKTELIERVRAYQDQ [L37V], which abundance fitness is on record?
A: The abundance fitness was -0.3 ± 0.092.

Q: With GALPANLDDMKVAELKQELKLRSLPVSGTKTELIERRRAYQDQ [L37R] as the variant, how does the abundance fitness read?
A: The abundance fitness was -0.462 ± 0.072.

Q: For GALPANLDDMKVAELKQELKLRSLPVSGTKTELIERQRAYQDQ [L37Q], which abundance fitness is on record?
A: Its abundance fitness is -0.631 ± 0.1.

Q: Which abundance fitness does the source give for GALPANLDDMKVAELKQELKLRSLPVSGTKTELIERTRAYQDQ [L37T] here?
A: Its abundance fitness is -0.416 ± 0.12.

Q: With GALPANLDDMKVAELKQELKLRSLPVSGTKTELIERLRANQDQ [Y40N] as the variant, how does the abundance fitness read?
A: Its abundance fitness is 0.127 ± 0.075.

Q: With GALPANLDDMKVAELKQELKLRSLPVSGTKTELIERLRALQDQ [Y40L] as the variant, how does the abundance fitness read?
A: Its abundance fitness is -0.062 ± 0.077.

Q: Which abundance fitness does the source give for GALPANLDDMKVAELKQELKLRSLPVSGTKTELIERLRATQDQ [Y40T] here?
A: Its abundance fitness is 0.08 ± 0.11.

Q: With GALPANLDDMKVAELKQELKLRSLPVSGTKTELIERLRAHQDQ [Y40H] as the variant, how does the abundance fitness read?
A: Its abundance fitness is 0.228 ± 0.15.

Q: For GALPANLDDMKVAELKQELKLRSLPVSGTKTELIERLRARQDQ [Y40R], which abundance fitness is on record?
A: Its abundance fitness is 0.042 ± 0.061.

Q: With GALPANLDDMKVAELKQELKLRSLPVSGTKTELIERLRAWQDQ [Y40W] as the variant, how does the abundance fitness read?
A: Its abundance fitness is 0.178 ± 0.073.

Q: With GALPANLDDMKVAELKQELKLRSLPVSGTKTELIERLRASQDQ [Y40S] as the variant, how does the abundance fitness read?
A: Its abundance fitness is 0.246 ± 0.074.

Q: With GALPANLDDMKVAELKQELKLRSLPVSGTKTELIERLRAQQDQ [Y40Q] as the variant, how does the abundance fitness read?
A: Its abundance fitness is -0.189 ± 0.23.

Q: For GALPANLDDMKVAELKQELKLRSLPVSGTKTELIERLRAKQDQ [Y40K], which abundance fitness is on record?
A: Its abundance fitness is -0.103 ± 0.12.

Q: Which abundance fitness does the source give for GALPANLDDMKVAELKQELKLRSLPVSGTKTELIERLRADQDQ [Y40D] here?
A: The abundance fitness was 0.308 ± 0.074.

Q: For GALPANLDDMKVAELKQELKLRSLPVSGTKTELIERLRAFQDQ [Y40F], which abundance fitness is on record?
A: Its abundance fitness is 0.12 ± 0.062.

Q: Which abundance fitness does the source give for GALPANLDDMKVAELKQELKLRSLPVSGTKTELIERLRAGQDQ [Y40G] here?
A: The abundance fitness was 0.202 ± 0.065.

Q: Which abundance fitness does the source give for GALPANLDDMKVAELKQELKLRSLPVSGTKTELIERLRAVQDQ [Y40V] here?
A: The abundance fitness was 0.179 ± 0.062.

Q: For GALPANLDDMKVAELKQELKLRSLPVSGTKTELIERLRAPQDQ [Y40P], which abundance fitness is on record?
A: The abundance fitness was 0.192 ± 0.1.

Q: With GALPANLDDMKVAELKQELKLRSLPVSGTKTELIERLRAMQDQ [Y40M] as the variant, how does the abundance fitness read?
A: Its abundance fitness is 0.02 ± 0.087.

Q: Which abundance fitness does the source give for GALPANLDDMKVAELKQELKLRSLPVSGTKTELIERLRAAQDQ [Y40A] here?
A: Its abundance fitness is 0.247 ± 0.064.

Q: For GALPANLDDMKVAELKQELKLRSLPVSGTKTELIERLRAEQDQ [Y40E], which abundance fitness is on record?
A: Its abundance fitness is 0.179 ± 0.11.

Q: Which abundance fitness does the source give for GALPANLDDMKVAELKQELKLRSLPVSGTKTELIERLRACQDQ [Y40C] here?
A: Its abundance fitness is 0.127 ± 0.082.

Q: Which abundance fitness does the source give for GALPANLDDMKVAELKQELKLRSLPVSGTKTELIERLWAYQDQ [R38W] here?
A: The abundance fitness was -0.236 ± 0.2.

Q: With GALPANLDDMKVAELKQELKLRSLPVSGTKTELIERLPAYQDQ [R38P] as the variant, how does the abundance fitness read?
A: The abundance fitness was -0.107 ± 0.1.

Q: Which abundance fitness does the source give for GALPANLDDMKVAELKQELKLRSLPVSGTKTELIERLIAYQDQ [R38I] here?
A: The abundance fitness was -0.086 ± 0.37.

Q: With GALPANLDDMKVAELKQELKLRSLPVSGTKTELIERLEAYQDQ [R38E] as the variant, how does the abundance fitness read?
A: The abundance fitness was 0.074 ± 0.089.

Q: For GALPANLDDMKVAELKQELKLRSLPVSGTKTELIERLHAYQDQ [R38H], which abundance fitness is on record?
A: Its abundance fitness is -0.201 ± 0.17.

Q: For GALPANLDDMKVAELKQELKLRSLPVSGTKTELIERLMAYQDQ [R38M], which abundance fitness is on record?
A: The abundance fitness was -0.052 ± 0.24.

Q: Which abundance fitness does the source give for GALPANLDDMKVAELKQELKLRSLPVSGTKTELIERLTAYQDQ [R38T] here?
A: The abundance fitness was -0.233 ± 0.077.

Q: With GALPANLDDMKVAELKQELKLRSLPVSGTKTELIERLLAYQDQ [R38L] as the variant, how does the abundance fitness read?
A: The abundance fitness was -0.224 ± 0.083.

Q: For GALPANLDDMKVAELKQELKLRSLPVSGTKTELIERLFAYQDQ [R38F], which abundance fitness is on record?
A: Its abundance fitness is -0.626 ± 0.2.

Q: For GALPANLDDMKVAELKQELKLRSLPVSGTKTELIERLVAYQDQ [R38V], which abundance fitness is on record?
A: Its abundance fitness is -0.152 ± 0.071.

Q: Which abundance fitness does the source give for GALPANLDDMKVAELKQELKLRSLPVSGTKTELIERLGAYQDQ [R38G] here?
A: The abundance fitness was -0.047 ± 0.063.

Q: Which abundance fitness does the source give for GALPANLDDMKVAELKQELKLRSLPVSGTKTELIERLQAYQDQ [R38Q] here?
A: Its abundance fitness is -0.24 ± 0.074.

Q: Which abundance fitness does the source give for GALPANLDDMKVAELKQELKLRSLPVSGTKTELIERLKAYQDQ [R38K] here?
A: The abundance fitness was -0.138 ± 0.096.

Q: With GALPANLDDMKVAELKQELKLRSLPVSGTKTELIERLSAYQDQ [R38S] as the variant, how does the abundance fitness read?
A: The abundance fitness was -0.126 ± 0.081.

Q: Which abundance fitness does the source give for GALPANLDDMKVAELKQELKLRSLPVSGTKTELIERLCAYQDQ [R38C] here?
A: The abundance fitness was -0.301 ± 0.086.

Q: Which abundance fitness does the source give for GALPANLDDMKVAELKQELKLRSLPVSGTKTELIERLDAYQDQ [R38D] here?
A: Its abundance fitness is -0.588 ± 0.27.

Q: With GALPANLDDMKVAELKQELKLRSLPVSGTKTELIERLYAYQDQ [R38Y] as the variant, how does the abundance fitness read?
A: The abundance fitness was -0.053 ± 0.15.

Q: Which abundance fitness does the source give for GALPANLDDMKVAELKQELKLRSLPVSGTKTELIERLAAYQDQ [R38A] here?
A: Its abundance fitness is 0.2 ± 0.18.
